Test results: article PMC10397247
Read-outs that look alike come from different tables or passages of the source. Blank lines part the entries; values can stand above or below the binder they belong to.

Tests used:
Test in all cases: two-hybrid library CCmax;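 note: natural log of median RNA to DNA barcode read ratio; higher means stronger binding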
4H3865-AA = molecular target: T1, 4H3865-AA; settings: mean of both orientations
T1 chain: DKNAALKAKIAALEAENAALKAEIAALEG

4H384-AA = molecular target: T2, 4H384-AA; settings: mean of both orientations
T2 chain: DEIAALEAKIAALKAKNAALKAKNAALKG

Q8-AA = molecular target: T3, Q8-AA; settings: mean of both orientations
T3 chain: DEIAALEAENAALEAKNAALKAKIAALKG

4H697-AA = molecular target: T4, 4H697-AA; settings: mean of both orientations
T4 chain: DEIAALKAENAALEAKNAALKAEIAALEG

Q3-AA = molecular target: T5, Q3-AA; settings: mean of both orientations
T5 chain: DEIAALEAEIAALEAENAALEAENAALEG

4H3718-AA = molecular target: T6, 4H3718-AA
T6 chain: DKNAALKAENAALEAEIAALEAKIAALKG

Q7-AA = molecular target: T7, Q7-AA; settings: mean of both orientations
T7 chain: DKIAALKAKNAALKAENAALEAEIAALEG

4H982-AA = molecular target: T8, 4H982-AA; settings: mean of both orientations
T8 chain: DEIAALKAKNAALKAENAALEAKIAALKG

4H454-AA = molecular target: T9, 4H454-AA; settings: mean of both orientations
T9 chain: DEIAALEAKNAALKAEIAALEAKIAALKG

4H993-AA = molecular target: T10, 4H993-AA; settings: mean of both orientations
T10 chain: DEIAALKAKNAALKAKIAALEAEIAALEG

4H3627-AA = molecular target: T11, 4H3627-AA
T11 chain: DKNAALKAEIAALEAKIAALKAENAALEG

4H429-AA = molecular target: T12, 4H429-AA; settings: mean of both orientations
T12 chain: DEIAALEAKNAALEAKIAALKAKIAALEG

4H3921-AA = molecular target: T13, 4H3921-AA; settings: mean of both orientations
T13 chain: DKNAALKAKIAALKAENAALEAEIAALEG

4H678-AA = molecular target: T14, 4H678-AA; settings: mean of both orientations
T14 chain: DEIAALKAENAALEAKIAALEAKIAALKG

4H3655-AA = molecular target: T15, 4H3655-AA; settings: mean of both orientations
T15 chain: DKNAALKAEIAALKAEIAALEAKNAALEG

4H717-AA = molecular target: T16, 4H717-AA; settings: mean of both orientations
T16 chain: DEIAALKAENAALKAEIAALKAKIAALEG

4H794-AA = molecular target: T17, 4H794-AA; settings: mean of both orientations
T17 chain: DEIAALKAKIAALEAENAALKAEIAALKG

4H3844-AA = molecular target: T18, 4H3844-AA; settings: mean of both orientations
T18 chain: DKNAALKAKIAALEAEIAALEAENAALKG

4H605-AA = molecular target: T19, 4H605-AA; settings: mean of both orientations
T19 chain: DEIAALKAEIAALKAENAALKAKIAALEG

4H780-AA = molecular target: T20, 4H780-AA; settings: mean of both orientations
T20 chain: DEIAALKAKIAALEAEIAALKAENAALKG

4H48-AA = molecular target: T21, 4H48-AA
T21 chain: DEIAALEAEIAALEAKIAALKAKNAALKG

4H881-AA = molecular target: T22, 4H881-AA; settings: mean of both orientations
T22 chain: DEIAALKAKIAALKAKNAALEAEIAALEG

4H566-AA = molecular target: T23, 4H566-AA; settings: mean of both orientations
T23 chain: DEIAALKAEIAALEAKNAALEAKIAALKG

4H906-AA = molecular target: T24, 4H906-AA; settings: mean of both orientations
T24 chain: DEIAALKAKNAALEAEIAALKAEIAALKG

4H3427-AA = molecular target: T25, 4H3427-AA; settings: mean of both orientations
T25 chain: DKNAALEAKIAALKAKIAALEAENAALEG

4H2944-AA = molecular target: T26, 4H2944-AA
T26 chain: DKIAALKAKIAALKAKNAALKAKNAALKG

4H317-AA = molecular target: T27, 4H317-AA; settings: mean of both orientations
T27 chain: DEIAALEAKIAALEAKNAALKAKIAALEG

4H3112-AA = molecular target: T28, 4H3112-AA; settings: mean of both orientations
T28 chain: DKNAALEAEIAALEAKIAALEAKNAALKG

4H3606-AA = molecular target: T29, 4H3606-AA; settings: mean of both orientations
T29 chain: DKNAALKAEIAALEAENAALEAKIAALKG

4H335-AA = molecular target: T30, 4H335-AA; settings: mean of both orientations
T30 chain: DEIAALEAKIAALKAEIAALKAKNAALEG

4H342-AA = molecular target: T31, 4H342-AA; settings: mean of both orientations
T31 chain: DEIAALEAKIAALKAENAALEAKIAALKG

4H2949-AA = molecular target: T32, 4H2949-AA; settings: mean of both orientations
T32 chain: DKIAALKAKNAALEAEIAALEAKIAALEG

4H3343-AA = molecular target: T33, 4H3343-AA; settings: mean of both orientations
T33 chain: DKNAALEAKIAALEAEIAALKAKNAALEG

interaction score (4H3865-AA): -1.49 | interaction score (4H384-AA): 0.145 | interaction score (Q8-AA): 1.05 | interaction score (4H697-AA): -0.465 | interaction score (Q3-AA): -1.46 | interaction score (4H3718-AA): -0.586 | interaction score (Q7-AA): -0.973 | interaction score (4H982-AA): -1.15
B1: 4H3718-AA (peptide)
chain: DKNAALKAENAALEAEIAALEAKIAALKG

interaction score (4H454-AA): 0.554 | interaction score (4H993-AA): -1.08 | interaction score (4H3627-AA): 0.53 | interaction score (4H429-AA): -1.09 | interaction score (4H3921-AA): -1.63 | interaction score (4H678-AA): -1.31 | interaction score (4H3655-AA): -0.0982 | interaction score (4H717-AA): -1.79 | interaction score (4H794-AA): -1.93 | interaction score (Q8-AA): -0.702 | interaction score (4H3844-AA): 1.03 | interaction score (4H605-AA): -1.4 | interaction score (Q3-AA): -1.24 | interaction score (4H780-AA): -1 | interaction score (4H48-AA; mean of both orientations): -0.478 | interaction score (4H3718-AA; mean of both orientations): -0.468 | interaction score (4H881-AA): -1.04 | interaction score (4H566-AA): -0.771 | interaction score (4H906-AA): -1.34 | interaction score (Q7-AA): -1.97
B2: 4H3627-AA (peptide)
chain: DKNAALKAEIAALEAKIAALKAENAALEG

interaction score (4H3427-AA): -0.0703 | interaction score (4H454-AA): -1.8 | interaction score (4H993-AA): -2.01 | interaction score (4H3627-AA; mean of both orientations): -0.579 | interaction score (4H429-AA): -1.71 | interaction score (4H2944-AA): -1.62 | interaction score (4H317-AA): -1.04 | interaction score (4H3921-AA): -0.731 | interaction score (4H678-AA): -1.67 | interaction score (4H3112-AA): -0.15 | interaction score (4H3655-AA): -0.297 | interaction score (4H717-AA): -1.69 | interaction score (4H794-AA): -1.89 | interaction score (Q8-AA): -1.55 | interaction score (4H3844-AA): 0.407 | interaction score (4H605-AA): -1.34 | interaction score (Q3-AA): 1.67 | interaction score (4H3606-AA): -0.0316 | interaction score (4H780-AA): -1.43 | interaction score (4H48-AA): -1.33 | interaction score (4H3718-AA; mean of both orientations): -0.87 | interaction score (4H335-AA): -1.7 | interaction score (4H342-AA): 1.12 | interaction score (4H2949-AA): -1.55 | interaction score (4H881-AA): -0.992 | interaction score (4H566-AA): 0.106 | interaction score (4H906-AA): -1.83 | interaction score (4H3343-AA): -1.17 | interaction score (Q7-AA): -1.77
B3: 4H2944-AA (peptide)
chain: DKIAALKAKIAALKAKNAALKAKNAALKG
